Changes are numbered by the printed parent chain. Blank lines part the entries; values can stand above or below the binder they belong to.
Experiments:
[1] = biological target: T1, Her2-Fc (human, UniProt P04626 23-652); test: ELISA on coated Her2-Fc; 24 h in mouse serum at 37 C
T1 construct: Coated in ELISA
Method: (§1) High binding plates (Greiner, 781061) were immobilized with 2.5 μg/ml hFAP-Fc or 1.2 μg/ml Her2-Fc over night at 4° C. Dilution series of 3 μM to 0.07 pM of fusion proteins with binding specifically to Her2 were incubated in 100% human serum or 100% mouse serum for 24 h at 37° C. Dilution series of 3 µM to 0.2 pM or 1 μM to 0.01 fM of fusion proteins with binding specifically to hFAP were incubated in 100% human serum or 100% mouse serum for 24 h at 37° C. ELISA-plates were washed three times with PBST (PBS+0.1% Tween) and blocked with 3% BSA/0.5% Tween/PBS up to 2 h at room temperature (rt). After preincubation for 0 h or 24 h in the presence of serum the dilution series were incubated on ELISA-plates for up to 1 h at rt. Wells were washed with PBST and incubated with biotinylated anti-ubiquitin-antibody (1:300) for up to 1 h at rt. The binding was visualized with Streptavidin-HRP (1:5.000).
(§2) The fusion proteins comprise the albumin binding domain (referred to as HED) and the targeting moiety.

[2] = biological target: T1, Her2-Fc; test: ELISA on coated Her2-Fc; 0 h in mouse serum
Method: as §1, §2

[3] = biological target: T1, Her2-Fc; test: ELISA on coated Her2-Fc; after 24 h in human serum at 37 C
Method: as §1, §2

[4] = biological target: T1, Her2-Fc; test: ELISA on coated Her2-Fc; 0 h in human serum
Method: as §1, §2

[5] = biological target: T1, Her2-Fc; test: ELISA on coated Her2-Fc; 24 h in human serum at 37 C
Method: as §1, §2

[6] = biological target: T2, Her2 (immobilised on the SPR chip) (human, UniProt P04626 23-652, limits assumed); test: SPR, Her2 immobilised on the chip, pH 7.3, 1:1 Langmuir fit
T2 construct: construct not described; also called human epidermal growth factor receptor 2
Method: (§3) Recombinant protein A, HSA, MSA or target (either ED-B or Her2) was immobilized on a High Capacity Amine sensor chip (Bruker) after NHS/EDC activation with a Sierra SPR-32 system (Bruker). The chip was equilibrated with SPR running buffer (PBS 0.05%, Tween pH 7.3). Injection of ethanolamine after target immobilization was used to block free NHS groups. To determine the binding of fusion proteins to FAP, the Fc-tagged target was injected with 60 or 30 nM to Protein A coupled spots followed by the injection of fusion proteins.
(§4) Binding proteins were applied to the chip in serial dilutions with a flow rate of 30 μl/min. Upon binding, analyte accumulated on the surface increasing the refractive index. This change in the refractive index was measured in real time and plotted as response or resonance units versus time. The association was performed for 120 seconds and the dissociation for 180 seconds. After each run, the chip surface was regenerated with 30 μl regeneration buffer (10 mM glycine pH 2.0 or pH 1.5) and equilibrated with running buffer. Binding studies were carried out using the Sierra SPR-32 system (Bruker); data evaluation was operated via the Sierra Analyser software, provided by the manufacturer, by the use of the Langmuir 1:1 model (RI=0).

[7] = biological target: T1, Her2-Fc; test: ELISA on coated Her2-Fc; KD 24 h against KD 0 h, human serum
Method: as §1, §2

[8] = biological target: T3, Her2 expressed on Sk-Br-3 cells (human, UniProt P04626 23-1255); test: flow cytometry, dilution series on Sk-Br-3 cells
T3 construct: whole, on cells; also called human epidermal growth factor receptor 2
Method: Her2 expressing Sk-Br-3-cells and HEK293-hFAP overexpressing cells were thawed, washed with medium containing FCS, subsequently washed with FACS blocking buffer (PBS/0.1% Sodium Azide/3% FCS) and 100 μl seeded in 96-well round bottom plates with a density of 1×10⁶ cells/ml. Dilution series from 10 µM to 8.6 fM (CID 217781, CID 217787) and a dilution series of 3 µM to 0.2 μM (CID 218466, CID 218467, 218512, CID 218513, CID 218514, CID 218515, CID 218516) were incubated on Her2-expressing Sk-Br-3-cells and dilution series from 1 μM to 0.07 μM of fusion proteins 218690 and 218702 were incubated on hFAP-overexpressing HEK293-cell line for 45 min at 4° C. After centrifugation the supernatants were removed and cells were washed with FACS blocking buffer and 100 μl/well rabbit anti-Strep-Tag antibody (GenScript; A00626), 1:300 diluted in FACS blocking buffer were added. After removal of the primary antibody goat anti-rabbit IgG Alexa Fluor 488 antibody (Invitrogen; A4008) was applied in a 1:1000 dilution in FACS blocking buffer. Flow cytometry measurement was conducted on the Guava easyCyte 5HT device from Merck-Millipore at excitation wavelength 488 nm and emission wavelength 525/30 nm. The * in table 2 refers to a fusion protein with the albumin binding domain as dimer (homo-dimer) and/or the targeting moiety as dimer.

[9] = biological target: T1, Her2-Fc; test: ELISA on coated Her2-Fc; KD 24 h against KD 0 h, mouse serum
Method: as §1, §2

[10] = biological target: T4, human serum albumin (human, UniProt P02768 25-609); test: SPR, HSA immobilised on the chip, pH 7.3, 1:1 Langmuir fit
T4 construct: also called HSA
T4 sequence (P02768 25-609 limits assumed): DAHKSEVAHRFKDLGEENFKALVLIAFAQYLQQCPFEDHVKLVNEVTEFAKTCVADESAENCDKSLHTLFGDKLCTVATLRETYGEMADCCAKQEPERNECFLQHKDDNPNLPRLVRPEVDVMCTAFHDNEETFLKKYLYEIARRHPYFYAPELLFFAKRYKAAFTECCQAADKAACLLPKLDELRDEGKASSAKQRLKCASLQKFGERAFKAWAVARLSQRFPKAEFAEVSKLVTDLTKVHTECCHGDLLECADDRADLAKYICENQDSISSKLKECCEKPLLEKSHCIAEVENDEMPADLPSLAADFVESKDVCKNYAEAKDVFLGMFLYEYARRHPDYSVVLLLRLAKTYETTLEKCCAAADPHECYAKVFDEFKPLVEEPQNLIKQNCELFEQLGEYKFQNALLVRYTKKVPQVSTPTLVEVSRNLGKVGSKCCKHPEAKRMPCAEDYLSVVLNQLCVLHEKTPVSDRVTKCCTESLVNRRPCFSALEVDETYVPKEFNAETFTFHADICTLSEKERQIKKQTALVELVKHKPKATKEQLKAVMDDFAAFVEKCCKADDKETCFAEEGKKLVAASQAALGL
Method: as §3, §4

[11] = biological target: T1, Her2-Fc; test: ELISA on coated Her2-Fc; after 24 h in mouse serum at 37 C
Method: as §1, §2

Kd [1]: 0.21 nM
Kd [2]: 0.18 nM
max binding after 24 h [%] [3]: 96.1%
Kd [4]: 0.34 nM
Kd [5]: 0.28 nM
Kd [6]: 2.5 nM
increase of KD vs target [fold] [7]: 0.82 fold
Kd [8]: 1.47 nM
increase of KD vs target [fold] [9]: 1.16 fold
Kd [10]: 9.1 nM
max binding after 24 h [%] [11]: 108%
B1: fusion protein 218515 (designed binder, not shown: small tags and cut ends)
chain (part 1 of 2): not shown
chain (part 2 of 2): LAEAKVLALKELDKYGISNYYKNLINNAKTIEGVKALKAQIVAA
notes: also called CID 218515

Kd [1]: 0.2 nM
Kd [2]: 0.17 nM
max binding after 24 h [%] [3]: 98.9%
Kd [4]: 0.39 nM
Kd [5]: 0.28 nM
Kd [6]: 2.4 nM
increase of KD vs target [fold] [7]: 0.71 fold
Kd [8]: 2.57 nM
increase of KD vs target [fold] [9]: 1.21 fold
Kd [10]: 10.9 nM
max binding after 24 h [%] [11]: 101%
B2: fusion protein 218516 (designed binder, not shown: small tags and cut ends)
chain (part 1 of 2): not shown
chain (part 2 of 2): B1 chain (part 2 of 2) with L9I, Y15A, K22F, I31V
notes: also called CID 218516
